Assay results published in patent US20200199204A1.

Columns and labels:
Experiment in all cases: cell-based or functional assay
[1] = molecular target: HIV-1 Env of 0260.v5.c36 (HIV-1)
[2] = molecular target: HIV-1 Env of 191821.E6.1 (HIV-1)
[3] = molecular target: HIV-1 Env of 3016.V5.c36 (HIV-1)
[4] = molecular target: HIV-1 Env of 6405.v4.c34 (HIV-1)
[5] = molecular target: HIV-1 Env of 6535.3 (HIV-1)
[6] = molecular target: HIV-1 Env of 96ZM651.02 (HIV-1)
[7] = molecular target: HIV-1 Env of AC10.29 (HIV-1)
[8] = molecular target: HIV-1 Env of BG505.w6m (HIV-1)
[9] = molecular target: HIV-1 Env of C1080.c3 (HIV-1)
[10] = molecular target: HIV-1 Env of CAAN.A2 (HIV-1)
[11] = molecular target: HIV-1 Env of CAP210.E8 (HIV-1)
[12] = molecular target: HIV-1 Env of CAP244.D3 (HIV-1)
[13] = molecular target: HIV-1 Env of CAP256.PI (HIV-1)
[14] = molecular target: HIV-1 Env of CAP256.SU (HIV-1)
[15] = molecular target: HIV-1 Env of CAP45.G3 (HIV-1)
[16] = molecular target: HIV-1 Env of CM244.ec1 (HIV-1)
[17] = molecular target: HIV-1 Env of CNE3 (HIV-1)
[18] = molecular target: HIV-1 Env of DU156.12 (HIV-1)
[19] = molecular target: HIV-1 Env of DU172.17 (HIV-1)
[20] = molecular target: HIV-1 Env of DU422.01 (HIV-1)
[21] = molecular target: HIV-1 Env of KER2008.12 (HIV-1)
[22] = molecular target: HIV-1 Env of KER2018.11 (HIV-1)
[23] = molecular target: HIV-1 Env of MB201 (HIV-1)
[24] = molecular target: HIV-1 Env of MB539.2B7 (HIV-1)
[25] = molecular target: HIV-1 Env of PVO.04 (HIV-1)
[26] = molecular target: HIV-1 Env of Q168.a2 (HIV-1)
[27] = molecular target: HIV-1 Env of Q23.17 (HIV-1)
[28] = molecular target: HIV-1 Env of Q259.d2.17 (HIV-1)
[29] = molecular target: HIV-1 Env of Q461.e2 (HIV-1)
[30] = molecular target: HIV-1 Env of Q769.d22 (HIV-1)
[31] = molecular target: HIV-1 Env of Q842.d12 (HIV-1)
[32] = molecular target: HIV-1 Env of QH0692.42 (HIV-1)
[33] = molecular target: HIV-1 Env of REJO.67 (HIV-1)
[34] = molecular target: HIV-1 Env of RHPA.7 (HIV-1)
[35] = molecular target: HIV-1 Env of RW020.2 (HIV-1)
[36] = molecular target: HIV-1 Env of SC422.8 (HIV-1)
[37] = molecular target: HIV-1 Env of TH976.17 (HIV-1)
[38] = molecular target: HIV-1 Env of THRO.18 (HIV-1)
[39] = molecular target: HIV-1 Env of TRJO.58 (HIV-1)
[40] = molecular target: HIV-1 Env of TRO.11 (HIV-1)
[41] = molecular target: HIV-1 Env of UG037.8 (HIV-1)
[42] = molecular target: HIV-1 Env of WITO.33 (HIV-1)
[43] = molecular target: HIV-1 Env of ZM109.4 (HIV-1)
[44] = molecular target: HIV-1 Env of ZM135.10a (HIV-1)
[45] = molecular target: HIV-1 Env of ZM197.7 (HIV-1)
[46] = molecular target: HIV-1 Env of ZM214.15 (HIV-1)
[47] = molecular target: HIV-1 Env of ZM233.6 (HIV-1)
[48] = molecular target: HIV-1 Env of ZM249.1 (HIV-1)
[49] = molecular target: HIV-1 Env of ZM53.12 (HIV-1)

Q: How did the IC50 [1] turn out when CAP256-VRC26.17 (antibody) was run?
A: The IC50 was over 50 µg/mL.

Q: And the IC50 [2]?
A: The IC50 was 35.4 µg/mL.

Q: And the IC50 [3]?
A: Its IC50 is 0.011 µg/mL.

Q: And the IC50 [4]?
A: The IC50 was over 50 µg/mL.

Q: What about the IC50 [5] of the same substance?
A: The IC50 was over 50 µg/mL.

Q: And the IC50 [6]?
A: Its IC50 is over 50 µg/mL.

Q: What about the IC50 [7] of the same substance?
A: Its IC50 is over 50 µg/mL.

Q: What about the IC50 [8] of the same substance?
A: The IC50 was 0.4 µg/mL.

Q: And the IC50 [9]?
A: The IC50 was over 50 µg/mL.

Q: What about the IC50 [10] of the same substance?
A: The IC50 was over 50 µg/mL.

Q: And the IC50 [11]?
A: The IC50 was 6 ng/mL.

Q: What about the IC50 [12] of the same substance?
A: The IC50 was over 50 µg/mL.

Q: And the IC50 [13]?
A: Its IC50 is over 50 µg/mL.

Q: And the IC50 [14]?
A: The IC50 was 3 ng/mL.

Q: And the IC50 [15]?
A: Its IC50 is over 50 µg/mL.

Q: What about the IC50 [16] of the same substance?
A: The IC50 was 0.14 µg/mL.

Q: What about the IC50 [17] of the same substance?
A: Its IC50 is over 50 µg/mL.

Q: What about the IC50 [18] of the same substance?
A: The IC50 was 18.7 µg/mL.

Q: What about the IC50 [19] of the same substance?
A: The IC50 was over 50 µg/mL.

Q: And the IC50 [20]?
A: The IC50 was 0.51 µg/mL.

Q: What about the IC50 [21] of the same substance?
A: The IC50 was over 50 µg/mL.

Q: What about the IC50 [22] of the same substance?
A: The IC50 was 0.064 µg/mL.

Q: And the IC50 [23]?
A: Its IC50 is over 50 µg/mL.

Q: And the IC50 [24]?
A: The IC50 was over 50 µg/mL.

Q: What about the IC50 [25] of the same substance?
A: The IC50 was over 50 µg/mL.

Q: What about the IC50 [26] of the same substance?
A: Its IC50 is over 50 µg/mL.

Q: And the IC50 [27]?
A: Its IC50 is 6.42 µg/mL.

Q: And the IC50 [28]?
A: Its IC50 is 0.076 µg/mL.

Q: What about the IC50 [29] of the same substance?
A: The IC50 was over 50 µg/mL.

Q: And the IC50 [30]?
A: Its IC50 is over 50 µg/mL.

Q: What about the IC50 [31] of the same substance?
A: The IC50 was over 50 µg/mL.

Q: And the IC50 [32]?
A: The IC50 was over 50 µg/mL.

Q: What about the IC50 [33] of the same substance?
A: Its IC50 is over 50 µg/mL.

Q: And the IC50 [34]?
A: The IC50 was over 50 µg/mL.

Q: And the IC50 [35]?
A: Its IC50 is over 50 µg/mL.

Q: What about the IC50 [36] of the same substance?
A: The IC50 was over 50 µg/mL.

Q: What about the IC50 [37] of the same substance?
A: The IC50 was over 50 µg/mL.

Q: And the IC50 [38]?
A: The IC50 was over 50 µg/mL.

Q: And the IC50 [39]?
A: The IC50 was over 50 µg/mL.

Q: What about the IC50 [40] of the same substance?
A: Its IC50 is over 50 µg/mL.

Q: What about the IC50 [41] of the same substance?
A: Its IC50 is over 50 µg/mL.

Q: And the IC50 [42]?
A: Its IC50 is over 50 µg/mL.

Q: And the IC50 [43]?
A: The IC50 was over 50 µg/mL.

Q: And the IC50 [44]?
A: Its IC50 is over 50 µg/mL.

Q: And the IC50 [45]?
A: The IC50 was 2.2 µg/mL.

Q: And the IC50 [46]?
A: Its IC50 is over 50 µg/mL.

Q: And the IC50 [47]?
A: The IC50 was 6 ng/mL.

Q: What about the IC50 [48] of the same substance?
A: The IC50 was 1.23 µg/mL.

Q: What about the IC50 [49] of the same substance?
A: Its IC50 is 5 ng/mL.
